Experimental data from patent US20260274913A1 (Amgen, published 2026).
Residue numbers refer to the chain shown, from its start.

B1: 49A2 (antibody, V domains shown)
VH: EVQLVESGGGLVQPGGSLRLSCAASGFTFSSNWMSWVRQAPGKGLDWMASMKQDGSEIYYVDSVKGRFTISRDNAKNSLHLQMNSLRAEDTAVYYCVRGGWRFESWGQGALVTVSS
VL: EIVMTQSPATLSVSPGERATLSCRASQSVSSNLAWYQQKSGQAPRLLIYGASIRATGIPARVSGSGSGTEFTFTISSLQSEDFAVYYCQQYKNWPLTLGGGTKVEIK
notes: also called 19333
B2: 66B8 (antibody, V domains shown)
VH: QVQLVQSGAEVKKPGASVKVSCKASGYTFTGYYMHWVRQAPGQGLEWMGWFKPNSGVTNYAQKFQGRVTMSRDTSISTAYMELSSLRSDDTAVYYCARAGYSTSWKDWFDPWGQGTLVTVSS
VL: DIQMTQFPSSVSASVGDRVTITCRASQGISRWLAWYQQKQGKAPKLLIYMVSSLQSGVPSRFSGSGSGTDFTLTISSLQPEDFATYYCQQSHNFPITFGQGTRLDIK
B3: 50A12 (antibody, V domains shown)
VH: EVQLVESGGGLVQPGGSLRLSCAASGFTFSSYWMSWVRQAPGKGLEWVANIKQDGSEEYYVDSVKGRFTISRDNAKNSLFLQMNSLRAEDTAVYYCARDYGDSFDYWGQGTLVTVSS
VL: DIQMTQSPSSVSASVGDRVTITCRASQGIRKWLAWYQQKPGRAPKLLIYAASRLQSGVPSRFSGSGSGTDFTLTISSLRPEDFATYYCLQAHGFPWTFGQGTKVEIK
B4: 57F5 (antibody, V domains shown)
VH: EVQLLESGGGLVQPGGSLRLSCAASGFTFSSYAMTWVRQAPGRGLQWVSTISGSGSNTYYADSVKGRFTISRDNSKNTLYLQMSSLRAEDTAVYYCAKEGGSNRYFHHWGQGTLVTISS
VL: DIQMTQSPSSLSASVGDRVTITCRASQSISSNLNWYQQKPGKAPKLLISAASNLQSGVPSRFSGSESGTDFTLTISSLQSEDFATYYCQQSDSLPLTFGGGTKVEIN
B5: 44A5 (antibody, V domains shown)
VH: EVQLLESGGGLVQPGGSLRLSCAASGFTFSTYAMNWVRQAPGKGLEWVSTVSGSGRPTYYADSVKGRFTISRDNSKNTLYLQMNSLRAEDTAVYYCAKAYYSNYLFDYWGQGTLVTVSS
VL: EIVMTQSPAILSVSPGERATLSCRASQSVSSNLAWYQQKPGQAPRLLIYGASTRATGVPARFSGGGSGTDFTLTISSLQSEDFAVYYCQHCKTWPPLTFGGGTKVDLK
B6: 3E12 (antibody, V domains shown)
VH: QVQLVQSGAEVKKPGASVKVSCKASGYTFNGYYIHWVRQAPGQGLEWMGWLNPNSGGANYAQKFQGWVTMTRDTSISTAYMELSRLTSDDTAVYYCARDQRKTTVTPFEYWGQGTLVTVSS
VL: SYELTQPPSVSVSPGQTASITCSGDKLGERNVCWYQLKPGQSPILVIYQDNKRPSGIPERFSGSKSGNTAILTISGTQAMDEADYYCQAWDRNVVFGGGTKLTVL
B7: 57C10 (antibody, V domains shown)
VH: QVQLVQSGAEVKKPGASVKVSCKASGYTFTRYDINWVRQATGQGLEWMGWLNPNSGNTGQTQKFRGRVTMTRNTSINTAYMELSSLRSEDTAVYYCARGGYTSAWRWYFDLWGRGTLVTVSS
VL: DIQMTQSPSSLSASVGDRVTITCQASQDINNHLNWYQQKPGKAPKLLIYDVSNLETGVPSSFSGSGCGTDFTFTISSLQPEDIATYFCQQYDKLPLTFGGGTKVEIE
B8: 34D1 (antibody, V domains shown)
VH: B7 VH with L51M, T58S, Q60S, T61V, N77H, T78I, A104S
VL: DIQMTQSPSSLSASVGDRVNITCQASQDIRKHLNWYQQKPGKAPNLLIYDAANLETGVPSRFSGSGSGTAFTFTISSLQPEDIATYYCQHYANLPITFGQGTRLEIK
B9: 63F8 (antibody, V domains shown)
VH: QVQLVQSGAEVKKPGASVKVSCKASGYTFTSYDINWVRQATGQGLEWMGRMNPKSGNAGYVQNFRGRVTMTRNTSISTAYMELSSLRSEDTAVYYCARGGRTSIWSFVFDYWGQGTLVTVSS
VL: B7 VL with N30S, N31K, V51T, S61R, C67S, F87N, E107K
B10: 61B12 (antibody, V domains shown)
VH: QVQLVQSGAEVTKPGASVKVSCKASGYTFTRYDINWVRQATGQGLEWMGWMNPNSGNSGSVQKFRGRVTMTRNTSITTVYMELSSLRSDDTAVYYCARGGISSSWHWAFDIWGQGTMVTVSS
VL: B7 VL with D50G, V51A, S52Y, N53T, S61R, C67S, F87Y, E107K
B11: 61G5 (antibody, V domains shown)
VH: QVQLVQSGAEVKKPGASVKVSCKASGYTFTSYDINWVRQATGQGLEWMGWMNPNSGNSGSVKKFRDRVTMTRNTSISTAYMELSSLRSEDTAVYYCVRLIGYSSAWKWSFQHWGQGTLVTVSS
VL: B8 VL with N20T, Q27R, R30S, H32Y, N45K, L47Q, A52S, A70D, A92D, L94I
B12: 30H2 (antibody, V domains shown)
VH: EVQVLESGGGLVQPGESLRLSCTASGFTFNAYAMSWVRQAPGKGLEWVSTISGSGSTTYYADSVKGRFTISRDNSKNTLDLQMNSLRAADTAVYYCAKVAGSNFFFDHWGQGTLVTVSS
VL: EIVMTQSPATLSVSPGERATLSCRASQSINSNLAWYQQKPGQAPRLLIYGAYTRATGIPDRFSGSGSGTEFTLTISSLQSEDFAVYYCQEFIMWPPWTFGLGTQVEIK
notes: also called 19330
B13: 46H7 (antibody, V domains shown)
VH: EVQLLESGGGMVQPGGSLRLSCAVSGFTFSRYAMSWVRQAPGKGLEWVSEMRGSSGSTYYADSVKGRFTISRDNSKNTLYLQMNSLRVEDTAIYYCAKEFSSNSLFDYWGQGTLVTVSS
VL: B12 VL with I29V, Q42R, Y52S, D60A, E90Q, I92Y, M93N, L101Q, Q104K
B14: 64D7 (antibody, V domains shown)
VH: QVQLVQSGAEVKKPGASVKVSCKASGYTFTSYDINWVRQATGQGLEWMGWMNPNRGNTGYVKKFQGRVTMTRNTSISTAYMELSSLRSEDTAVYYCARRRAVYRSSWEWYFDLWGRGTLVTVSS
VL: DTQMTQSPSSLSASEGDRVTITCQASQDIFNDLNWYQEKPGKAPKLLIYHASNLETGVPSRFSGSGSGTDYTFTISSLQPEDIATYYCQQYGNLPLTFGGGTKVEIK

Experiments:
cyno TREM-1 = target: T1, cyno TREM-1 (cynomolgus monkey, UniProt A0A2K5VHG8 21-233); assay: cell-based or functional assay
T1 sequence: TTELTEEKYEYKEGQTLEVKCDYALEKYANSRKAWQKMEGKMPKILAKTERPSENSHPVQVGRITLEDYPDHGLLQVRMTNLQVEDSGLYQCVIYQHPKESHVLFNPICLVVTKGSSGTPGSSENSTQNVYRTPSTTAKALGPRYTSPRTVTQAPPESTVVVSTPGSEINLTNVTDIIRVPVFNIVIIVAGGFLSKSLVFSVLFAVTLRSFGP

cyno TREM-1-His protein = target: T2, cyno TREM-1-His protein (cynomolgus monkey, UniProt A0A2K5VHG8 21-204); assay: BLI (Octet HTX), antibody captured on anti-human Fc sensor, cyno TREM-1-His as analyte, 1:1 model
T2 construct: extracellular domain; Soluble analyte of the Octet assay; not shown: His tag
T2 sequence: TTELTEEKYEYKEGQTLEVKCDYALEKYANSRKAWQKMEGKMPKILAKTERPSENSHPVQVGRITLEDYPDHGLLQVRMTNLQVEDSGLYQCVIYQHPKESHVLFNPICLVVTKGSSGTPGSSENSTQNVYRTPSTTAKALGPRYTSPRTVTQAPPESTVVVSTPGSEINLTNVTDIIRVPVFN
Description: Briefly, TREM-1 hybridoma supernatants normalized to 10 μg/mL in DMEM null media were prepared by diluting 1:10 in OCTET® assay buffer (10 mM Tris, 0.1% Triton X-100, 150 mM NaCl, 1 mM CaCl₂), 0.1 mg/mL BSA, at pH 7.6) to a final test concentration of 1 μg/mL. Amine reactive second-generation AR2G Biosensors (Molecular Devices) were pre-incubated in 200 μL nanopore water for a minimum of 10 minutes at room temperature before use. The AR2G Biosensors were then activated for 5 minutes in a solution of 20 mM EDC (1-Ethyl-3-[3-dimethylaminopropyl]carbodiimide hydrochloride) (ForteBio) pre-mixed with 10 mM NHS (N-hydroxysulfosuccinimide) (ForteBio) in nanopore water. An in-house generated mouse anti-human Fc monoclonal antibody was coupled to the AR2G Biosensors at 10 μg/mL in 10 mM sodium acetate buffer at pH 5 for 5 minutes, quenched with 1M ethanolamine at pH 8.5 for 5 minutes, and then used to capture antibody from solution. The TREM-1 test antibodies were loaded onto the Biosensors for 5 minutes, and baseline measurements were taken for 1 minute. […] The association of recombinant human TREM-1 with the antibody-loaded sensor was measured for 5 minutes, followed by dissociation in OCTET® buffer for 10 minutes. Biosensors were then regenerated with 10 mM glycine at pH 1.7, reloaded with the same TREM-1 antibodies on the same sensors for 5 minutes, and the same method was used to measure association and dissociation of cyno TREM-1-His protein. Data was referenced using a 0 nM analyte reference sensor. Kinetic analysis was performed using a 1:1 Langmuir model with mass transfer in Genedata Screener software.

Binder | Ab IC50-Cyno PBMC (Trial 1), TNFα release induced by cyno PGLYRP1/PGN (cyno TREM-1) [pM] | Ab IC50-Cyno PBMC (Trial 2), TNFα release induced by cyno PGLYRP1/PGN (cyno TREM-1) [pM] | Kd (cyno TREM-1-His protein) [nM]
B1 | 732 | 266 | 1.87
B2 | 114 | 23.2 | 1.64
B3 | 2000 |  | 6.42
B4 |  |  | < 0.29
B5 | 57.9 | 9.1 | 2.02
B6 |  |  | 1.8
B7 | 154 | 28.4 | 1.28
B8 |  |  | 4.97
B9 | 22.6 | 16.1 | 0.856
B10 | 46.9 | 17.4 | 1.27
B11 |  | 2340 | 1.31
B12 | 3770 |  | 5.7
B13 | 95.1 | 9.7 | 
B14 | 6940 | 780 | 0.68
